Test: yeast display, Sf9 membrane polyspecificity reagent, FACS + sequencing; frameworks hold sequencing errors
Outline: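 Nanobodies from a synthetic yeast display library (Saccharomyces cerevisiae BJ5465), induced 36–48 hours with galactose, were stained 1 hour at 4 °C with 10% biotinylated, detergent-solubilized Sf9 membrane reagent, enriched on streptavidin microbeads, then FACS-sorted. Anti-HA (expression) and streptavidin (reagent binding) fluorescence set low and high (top ~1%) gates. Polyreactivity labels come from the gate of origin. Genes were colony-PCR amplified, MiSeq 2 × 250 sequenced and filtered by CDR length.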

Row | Sequence | polyreactivity (PSR sort gate)
1 | QVQLVESGGGLGQAGGSLSLSCAAYGRIYSRYAMGWYRQAPGKERELVAAINSGGITNYADSVKGRFTISRDNAKNTVYLQMNSLNPEDTAVYYCAAQARRSWGKYYYWGQGTQVPVSS | high polyreactivity
2 | QVQLVESGGGLIQAGGSLRLSCAASGIIFYPYTMGWYRPAPGKERELVAAIRQSGTSTYYADSVKGRFTISRDNAKKTVYFQMNSLKPEDTAVYYCNADDHIYWRKGYDYWGQGTQVTVSS | low polyreactivity
3 | QVQLVESGGGLIQAGGSLRLSCAASGSNFRYYALGWYRQAPGKESELVAAISQSGGSTHYAESVKGRFTISRDNAKITVYLQMNSLKAEDTAVYYCAKHWGPGTQVTVSS | low polyreactivity
4 | QVQLVESGGGLIQAGGSLRLSCAASGSTFGTYTRGWYRQAPGKERELVAAIRSGGITYYADSVKGRFTISRDNAKNTVYLQMNSLKPEDTAVYYCAKQYTGEPAMEYWGQGTQVTVSS | low polyreactivity
5 | QVQLVESGGGLIQAGGSRRLSCAASGIIFYPYTMGWYRQARGKERELVAAIRQSGTSTYYADSVKGRFTISRDNAKNTVYLQMNSLKPEDTAVYYCNADDHIYWRKGYDYWGQGTQVTVSS | low polyreactivity
6 | QVQLVESGGGLLKAGGSLRLSCAASGRIFDIYNMGWYRPAPGKERELVAAISSSGGRTYYADSVKGRFTISRDNAKTTVYLQMKSVKPEDTAVYYGAARPSKYVGSRGYDYWGQGTQVTVSS | high polyreactivity
7 | QVQLVESGGGLLQAGGRLRLSCAASVSIFTRYDMGWYRQAPGKEREFVAAISRGGGSTYYADSVKVRFTISLDNAKNTVYLQMISLKPENTAVYYCAPGVARYVKTASDYWGHGTQVTVSS | high polyreactivity
8 | QVQLVESGGGLLQAGGSLLLSCAASGITFYDNAMGWYRQAPGKERELVAGISYDGDSTYADSVKGRFTISRDNAKNTVYLQMNSLKPEDTAVYYCAALGPYEWLWAGDYWGQGTQVTVSS | low polyreactivity
9 | QVQLVESGGGLLQAGGSLPLSCAASGFTFVPYAMGLYIQAPGKERELDAAISSRGDSTYYADSVKGRFTISRDNAKNTVYLQMIRLSPEDTAFYYCIARTTPHMDYWGQGTQVTVSS | low polyreactivity
10 | QVQLVESGGGLLQAGGSLRISCAASGSTFYYYAMGWYRQAPGKERELVAAISRGGGSTYYADSVKGRFTISRDNAKNTVYLQMNSLKPEDTAVYYCAARRVGGGFYTWRNPAYEYWGQGTQVTVSS | high polyreactivity
11 | QVQLVESGGGLLQAGGSLRLIWAASGIIFVKNSMGWYRQAPGKERELVAAITVSGSRTYYADSVKGRFTISRDNAKNTVYLQMNSLKPEDTAVYYCNAYPYYRGRNMDSWGQGTQVTVSS | high polyreactivity
12 | QVQLVESGGGLLQAGGSLRLSCAASGFIFADNAMGRYIQAPGKERELVAGITSGGITNYADSVKGRFTISRDNAKNTVYLQMNSLKPEDSAVYYCAVYYRRWLSRYDYWGQGTQVTVSA | low polyreactivity
13 | QVQLVESGGGLLQAGGSLRLSCAASGFIFRFNAMGWYRQAPWTERELVAVIRWSSGSTYYADSVKGRFTISRDNAKNTVYLQMNSRKPEDTAVYYCAAVDDEYSIVWYDYWGQGTQVTVSA | low polyreactivity
14 | QVQLVESGGGLLQAGGSLRLSCAASGFTFFIYAMGWYRQAPGKEREFVAAITGSGGSTYYADSVKGRFRISRDNPKNTVYLLMNSLKPEDTAVYYCNKLSYGRSGYWGQGTQVTVSS | high polyreactivity
15 | QVQLVESGGGLLQAGGSLRLSCAASGFTIYRYAMGWYRQAPGKERELVGAITGGGGSTYYADSVKGRFTISRDNAKNTVYLQMNSLKPEDTAVYYCAVDVYHKGQYRWSYVYWGQGTQVTVSS | low polyreactivity
16 | QVQLVESGGGLLQAGGSLRLSCAASGGTFTWYAMGWYRQAPGKERELVAAISSDGSTYYADSVKGRFTISRDNAKNTVYLQMNSLKPEDTAVYYCAAYSSWGGFDYWGQGTQVTVSS | low polyreactivity
17 | QVQLVESGGGLLQAGGSLRLSCAASGITFYRNAMGWYRQAPGKERELVAAITWSGGSTYYADSVKGRFTISRDYAKNTVYLQMNSLKPEDSAVYYCNADYRHRYYWGQGTQVTVSS | high polyreactivity
18 | QVQLVESGGGLLQAGGSLRLSCAASGLTFVGYDMGWYRQAPGKERELVAAISTGGGSTYYADSVKGRFTISRDNAMNTVYLKMNSLKPEDTAVYYCNKLRLHGDRYDYWGQGTQVTVSS | high polyreactivity
19 | QVQLVESGGGLLQAGGSLRLSCAASGNTFAYNTMGWYIQAPGKERELVAAILTRGGSTYYADSVKGRFTISRDNAKKTVYLQMNSLNREDTAVYYGAADYRFHGYWSYDYWGQGTQVTVSS | low polyreactivity
20 | QVQLVESGGGLLQAGGSLRLSCAASGRIFGRNTKGWYRQAPGKERELVAVISWRGGSTYYADSVKGRFTISRDNAKNSVYLQMNSLKPEDTAVYYCNAKYPFSRRGDYWGQGTQVTVSS | high polyreactivity
21 | QVQLVESGGGLLQAGGSLRLSCAASGRTFGHYAMGWYRQAPGKEREFVAAITRGGGRTYYADSVKGRFTISRDNAKNTVYLQMNSLKPEDTAVYYCARKQYWGYDYWGQGTQVTVSS | low polyreactivity
22 | QVQLVESGGGLLQAGGSLRLSCAASGRTFKSYTMGWYRQAPGKERELVAAIRASGGITYYADSVKGRFTISRDNAKNTVYLQMNSLKPEDTAVYYCAARPRTRYDYWGQGTQVTVSS | high polyreactivity
